Measurements from publication PMC9728965, “Stomatal CO2/bicarbonate sensor consists of two interacting protein kinases, Raf-like HT1 and non-kinase-activity requiring MPK12/MPK4” (Science Advances, 2022).
Positions count from the first letter of the chain named.

T1: His-HT1-R173Q (Arabidopsis thaliana, UniProt Q2MHE4 1-390, R173Q)
T1 construct: HT1 protein kinase of Arabidopsis thaliana with R173Q (dominant allele from an EMS screen); As m1 with the point mutation; source: E. coli, purified (Ni resin beads); not shown: His tag, N-terminal, kept
T1 sequence (looked up): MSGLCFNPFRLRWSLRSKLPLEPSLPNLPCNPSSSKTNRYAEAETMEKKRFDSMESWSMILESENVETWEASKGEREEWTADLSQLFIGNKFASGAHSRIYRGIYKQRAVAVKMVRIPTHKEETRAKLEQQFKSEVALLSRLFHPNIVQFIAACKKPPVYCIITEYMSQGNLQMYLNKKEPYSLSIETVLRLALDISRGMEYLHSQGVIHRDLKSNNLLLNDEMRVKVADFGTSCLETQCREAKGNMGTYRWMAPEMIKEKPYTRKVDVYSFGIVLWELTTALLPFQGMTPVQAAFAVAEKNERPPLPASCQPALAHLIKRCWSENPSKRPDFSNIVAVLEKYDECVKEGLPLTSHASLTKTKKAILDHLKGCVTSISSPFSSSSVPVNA

T2: His-HT1 (high leaf temperature 1, Raf-like protein kinase), wild type (Arabidopsis thaliana, UniProt Q2MHE4 1-390)
T2 construct: HT1 protein kinase of Arabidopsis thaliana; UniProt Q2MHE4 is printed as the 'long form of HT1' used for the AlphaFold2 model; Expressed from pET30a(+); source: E. coli, purified (Ni resin beads); not shown: His tag, N-terminal, kept
T2 sequence (looked up): T1 sequence (looked up) with Q173R

B1: GST-MPK4 (mitogen-activated protein kinase 4) (enzyme, Arabidopsis thaliana, UniProt Q39024 1-376, looked up)
chain: MSAESCFGSSGDQSSSKGVATHGGSYVQYNVYGNLFEVSRKYVPPLRPIGRGAYGIVCAATNSETGEEVAIKKIGNAFDNIIDAKRTLREIKLLKHMDHENVIAVKDIIKPPQRENFNDVYIVYELMDTDLHQIIRSNQPLTDDHCRFFLYQLLRGLKYVHSANVLHRDLKPSNLLLNANCDLKLGDFGLARTKSETDFMTEYVVTRWYRAPELLLNCSEYTAAIDIWSVGCILGETMTREPLFPGKDYVHQLRLITELIGSPDDSSLGFLRSDNARRYVRQLPQYPRQNFAARFPNMSAGAVDLLEKMLVFDPSRRITVDEALCHPYLAPLHDINEEPVCVRPFNFDFEQPTLTEENIKELIYRETVKFNPQDSV
notes: MPK4, MAP kinase of Arabidopsis thaliana; UniProt Q39024 printed for the model; Expressed from pGEX-6P-1; source: E. coli, purified (glutathione Sepharose beads); not shown: GST, N-terminal, kept
B2: GST-MPK12 (mitogen-activated protein kinase 12) (enzyme, Arabidopsis thaliana, UniProt Q8GYQ5 1-372, looked up)
chain: MSGESSSGSTEHCIKVVPTHGGRYVQYNVYGQLFEVSRKYVPPIRPIGRGACGIVCAAVNSVTGEKVAIKKIGNAFDNIIDAKRTLREIKLLRHMDHENVITIKDIVRPPQRDIFNDVYIVYELMDTDLQRILRSNQTLTSDQCRFLVYQLLRGLKYVHSANILHRDLRPSNVLLNSKNELKIGDFGLARTTSDTDFMTEYVVTRWYRAPELLLNCSEYTAAIDIWSVGCILGEIMTGQPLFPGKDYVHQLRLITELVGSPDNSSLGFLRSDNARRYVRQLPRYPKQQFAARFPKMPTTAIDLLERMLVFDPNRRISVDEALGHAYLSPHHDVAKEPVCSTPFSFDFEHPSCTEEHIKELIYKESVKFNPDH
notes: MPK12, MAP kinase of Arabidopsis thaliana; UniProt Q8GYQ5 printed for the model; Expressed from pGEX-6P-1; source: E. coli, purified (glutathione Sepharose beads); not shown: GST, N-terminal, kept

Columns and labels:
His-HT1-R173Q = target: T1, His-HT1-R173Q; assay: pull-down; GST-MPK on glutathione Sepharose 4B beads, His-HT1 as prey; 5 ug of each protein in 200 ul of 50 mM tris-HCl pH 7.5, 150 mM NaCl, 0.1% Triton X-100, 1 mM DTT; 20 mM NaHCO3 or 20 mM NaCl (control) in all buffers including washes; room temperature; immunoblot with anti-GST and anti-His; details: both partners purified
[1] = target: T2, His-HT1 (high leaf temperature 1, …); assay: as above; details: both partners purified

| Binder | binding result (His-HT1-R173Q) | binding result [1] |
| --- | --- | --- |
| B1 | binds | binds |
| B2 | – | binds |
